In US20260167959A1, “APTAZYME-BASED REGULATABLE GENE EXPRESSION SYSTEMS” (REJUVENATE BIO INC, priority 2022, published 2026):
Residue numbers refer to the chain shown, from its start.

B1: RA340 (nucleic acid)
DNA: GCGCAGTGATACCAGCATCGTCTTGATGCCCTTGGCAGCACTGTCCTGGATTCGCGGAAACGCGTACATCCAGCTGACGAGTCCCAAATAGGACGAAACGCGC
modifications: expressed or natural sequence
B2: RA341 (nucleic acid)
DNA: GCGGAATACCAGCATCGTCTTGATGCCCTTGGAAGTCCGCGTCCTGGATTCGCGGAAACGCGTACATCCAGCTGACGAGTCCCAAATAGGACGAAACGCGC
modifications: expressed or natural sequence
B3: RA342 (nucleic acid)
DNA: GCGCGTCCTGGATTCGCGGAAACGCGTACGGAATACCAGCATCGTCTTGATGCCCTTGGAAGTCCGCATCCAGCTGACGAGTCCCAAATAGGACGAAACGCGC
modifications: expressed or natural sequence
B4: RA343 (nucleic acid)
DNA: GCGCGTCCGGAATACCAGCATCGTCTTGATGCCCTTGGAAGTCCGCTGGATTCGCGGAAACGCGTACATCCAGCTGACGAGTCCCAAATAGGACGAAACGCGC
modifications: expressed or natural sequence
B5: RA344 (nucleic acid)
DNA: GCGCGTCCTGGATTCGCGGAAACCCGGAATACCAGCATCGTCTTGATGCCCTTGGAAGTCCGGGCGTACATCCAGCTGACGAGTCCCAAATAGGACGAAACGCGC
modifications: expressed or natural sequence
B6: RA345 (nucleic acid)
DNA: GCGCGTCCTGGATTCGCGGAAACGCGTACATCCAGCTGACGAGTCCCAAATAGGACGAAACGCGAGAATACCAGCATCGTCTTGATGCCCTTGGAAGTCTC
modifications: expressed or natural sequence
B7: RA346 (nucleic acid)
DNA: GCGCGTCCTGGATTCGCGGAAACGCGTACATCCAGCTGGAATACCAGCATCGTCTTGATGCCCTTGGAAGTCCGACGAGTCCCAAATAGGACGAAACGCGC
modifications: expressed or natural sequence
B8: RA347 (nucleic acid)
DNA: GCGCGTCCTGGATTCGCGGAAACGCAGAATACCAGCATCGTCTTGATGCCCTTGGAAGTCTGTACATCCAGCTGACGAGTCCCAAATAGGACGAAACGCGC
modifications: expressed or natural sequence
B9: RA348 (nucleic acid)
DNA: GCGCGTCCTGGATTCGCGGAAACGCGTACATCCAGCTGACGACGAGAATACCAGCATCGTCTTGATGCCCTTGGAAGTCTCGGTCCCAAATAGGACGAAACGCGC
modifications: expressed or natural sequence
B10: RA349 (nucleic acid)
DNA: GCGCGTCCTGGATTCGCGGAAACGCGTACATCCAGCTGACGAGGAGAATACCAGCATCGTCTTGATGCCCTTGGAAGTCTCTCCCAAATAGGACGAAACGCGC
modifications: expressed or natural sequence
B11: RA350 (nucleic acid)
DNA: GCGCAGAATACCAGCATCGTCTTGATGCCCTTGGAAGTCTGTCCTGGATTCGCGGAAACGCGTACATCCAGCTGACGAGTCCCAAATAGGACGAAACGCGC
modifications: expressed or natural sequence
B12: RA351 (nucleic acid)
DNA: GCGCGTCCTGGATTCGCGGAAACGCGTACATCCAGCGAGAATACCAGCATCGTCTTGATGCCCTTGGAAGTCTCTGACGAGTCCCAAATAGGACGAAACGCGC
modifications: expressed or natural sequence
B13: RA352 (nucleic acid)
DNA: GCGCGTCCTGGATTCGCGGAAACGCGTACATCCAGCTGACGAGTCCCAAATAGGACGAAACGCGCGAGAATACCAGCATCGTCTTGATGCCCTTGGAAGTCTCGC
modifications: expressed or natural sequence
B14: RA353 (nucleic acid)
DNA: GCGCGTCCTGGATTCGCGGAAACGCGTACATCCAGCTGACGAGTCCCAAATAGGACGAAACGCCGGAATACCAGCATCGTCTTGATGCCCTTGGAAGTCCGGCGC
modifications: expressed or natural sequence
B15: RA354 (nucleic acid)
DNA: GCGCGTCCTGGATTCGCGGAAACGCGTACATCCAGCTGACGAGTCCCAAATAGGAGTGATACCAGCATCGTCTTGATGCCCTTGGCAGCACTACGAAACGCGC
modifications: expressed or natural sequence
B16: RA355 (nucleic acid)
DNA: GCGCGTCCTGGATTCGCGGAAACGCGTACATCGAGAATACCAGCATCGTCTTGATGCCCTTGGAAGTCTCCAGCTGACGAGTCCCAAATAGGACGAAACGCGC
modifications: expressed or natural sequence
B17: RA356 (nucleic acid)
DNA: GCGCGTCCTGGATTCGCGGAAACGCGTACATCCAGCTGACGAGTCCCAAATAGGACGAAAGAGAATACCAGCATCGTCTTGATGCCCTTGGAAGTCTCCGCGC
modifications: expressed or natural sequence
B18: RA357 (nucleic acid)
DNA: GCGCGTCCTGGATTCGCGGAAACGCGTACATCCAGCTGACGAGTCCCAAATAGGACGGGAATACCAGCATCGTCTTGATGCCCTTGGAAGTCCAAACGCGC
modifications: expressed or natural sequence
B19: RA358 (nucleic acid)
DNA: B10 DNA with G44C, A45G, T80C, C81G
modifications: expressed or natural sequence
B20: RA359 (nucleic acid)
DNA: GCGCGTCCTGGATAGAATACCAGCATCGTCTTGATGCCCTTGGAAGTCTTCGCGGAAACGCGTACATCCAGCTGACGAGTCCCAAATAGGACGAAACGCGC
modifications: expressed or natural sequence
B21: RA360 (nucleic acid)
DNA: B2 DNA with G3A, C38T
modifications: expressed or natural sequence
B22: RA361 (nucleic acid)
DNA: GCGCGTCCTGGATTCGCGGAAACGCGTACATCCAGCTGACGAGTCCCAAATAGGACGAAACGCCCGGAATACCAGCATCGTCTTGATGCCCTTGGAAGTCCGGGC
modifications: expressed or natural sequence
B23: RA362 (nucleic acid)
DNA: GCGCGTCCTGGAGGAATACCAGCATCGTCTTGATGCCCTTGGAAGTCCTTCGCGGAAACGCGTACATCCAGCTGACGAGTCCCAAATAGGACGAAACGCGC
modifications: expressed or natural sequence
B24: RA363 (nucleic acid)
DNA: GCGCGTCCTGGATTCGCGGAAACGCGTACATCCAGCTGACGAGTCCCACGGAATACCAGCATCGTCTTGATGCCCTTGGAAGTCCGAATAGGACGAAACGCGC
modifications: expressed or natural sequence
B25: RA364 (nucleic acid)
DNA: GCGCGTCCTGGATTCGCGGAAACGCGTGGAATACCAGCATCGTCTTGATGCCCTTGGAAGTCCACATCCAGCTGACGAGTCCCAAATAGGACGAAACGCGC
modifications: expressed or natural sequence
B26: RA365 (nucleic acid)
DNA: GCGAGAATACCAGCATCGTCTTGATGCCCTTGGAAGTCTCGTCCTGGATTCGCGGAAACGCGTACATCCAGCTGACGAGTCCCAAATAGGACGAAACGCGC
modifications: expressed or natural sequence
B27: RA033 (nucleic acid)
DNA: GCGCGTCCTGGATTCGCGGAAACGCGTACATCCAGCTGACGAGTCCCAAATCCGGAATACCAGCATCGTCTTGATGCCCTTGGAAGTCCGGAGGACGAAACGCGC
modifications: expressed or natural sequence
B28: RA034 (nucleic acid)
DNA: GCGCGTCCTGGATTCGCGGAAACGCGTACATCCAGCTGACGAGAGAATACCAGCATCGTCTTGATGCCCTTGGAAGTCTCGTCCCAAATAGGACGAAACGCGC
modifications: expressed or natural sequence
B29: RA035 (nucleic acid)
DNA: B17 DNA with G61C, A62G, T97C, C98G
modifications: expressed or natural sequence

The molecules below were run on Renilla luciferase RNA (assay: Barcoded aptazyme variant library screen: un-cleaved Renilla luciferase RNA by barcode read counts, HEK293-T cells). Settings: un-cleaved Renilla luciferase RNA by barcode read counts; with 1 mM theophylline (ON) over without theophylline (OFF); HEK293-T cells; triplicate.
Type: cell-based
How it was run: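 Aptazyme variants (seven theophylline aptamers inserted after each T3H48 ribozyme nucleotide, 9-nt barcoded) cloned into the 3′ UTR of Renilla luciferase in psiCHECK-2; cells cultured ± theophylline, in triplicate. RNA and DNA barcodes amplified and sequenced; normalized read counts gave un-cleaved RNA fraction and ON/OFF fold-change.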
With B1 the “Fold change in RNA expression between the ON state and the OFF state” value (from here on “Fold change”) was 0.9.
In the case of B2, the “Fold change” value is reported as 0.9.
In the case of B3, the “Fold change” value is reported as 0.9.
In the case of B4, the “Fold change” value is reported as 0.9.
With B5 the “Fold change” value was 0.9.
For B6, the “Fold change” value was 0.9.
B7 was tested, and the “Fold change” value was 0.9.
With B8 the “Fold change” value was 0.9.
In the case of B9, the “Fold change” value is reported as 0.9.
With B10 the “Fold change” value was 0.9.
B11 was tested, and the “Fold change” value was 0.9.
With B12 the “Fold change” value was 0.9.
For B13, the “Fold change” value was 0.9.
For B14, the “Fold change” value was 0.9.
B15 was tested, and the “Fold change” value was 0.9.
In the case of B16, the “Fold change” value is reported as 0.9.
In the case of B17, the “Fold change” value is reported as 0.8.
In the case of B18, the “Fold change” value is reported as 0.8.
B19 was tested, and the “Fold change” value was 0.8.
For B20, the “Fold change” value was 0.8.
For B21, the “Fold change” value was 0.8.
B22 was tested, and the “Fold change” value was 0.8.
With B23 the “Fold change” value was 0.8.
B24 was tested, and the “Fold change” value was 0.8.
B25 was tested, and the “Fold change” value was 0.8.
For B26, the “Fold change” value was 0.8.

Same assay, conditions: un-cleaved Renilla luciferase RNA, HEK293-T cells cultured with 1 mM theophylline (ON) over without theophylline (OFF); barcode read counts, triplicate
B27 was tested, and the “Fold change” value was 2.3 fold.
For B28, the “Fold change” value was 2.3 fold.
In the case of B29, the “Fold change” value is reported as 2.2 fold.
